The record followed here is paper PMC4769845, “Structures of EccB1 and EccD1 from the core complex of the mycobacterial ESX-1 type VII secretion system” (BMC Structural Biology, 2016).

Data set [1] concerns the molecule itself. The data set can be described thus: crystal structure; cyto-EccD1mt alone; sitting drop, 0.1 M Tris-HCl pH 8.5, 0.2 M Mg chloride, 30 % PEG4000; two molecules in the asymmetric unit; 1.88 Å.
Data set [2] concerns the molecule itself. Nature of the data set: crystal structure; MBP-cyto-EccD1mt fusion, maltose-bound; sitting drop, 0.1 M HEPES pH 7.5, 1.4 M Na citrate; two molecules in the asymmetric unit; 2.20 Å.

B1: cytoplasmic domain of EccD1 from M. tuberculosis (cyto-EccD1mt) (domain or fragment)
chain: ATTRVTILTGRRMTDLVLPAAVPMETYIDDTVAVLSEVLEDTPADVLGGFDFTAQGVWAFARPGSPPLKLDQSLDDAGVVDGSLLTLVS
notes: also called Rv3877; not shown: His6, N-terminal, cleaved
For B1, the binding result in data set [1] is reported as “binds”.

B2: cyto-EccD1mt fused to maltose binding protein (MBP-cyto-EccD1mt) (domain or fragment)
chain: ATTRVTILTGRRMTDLVLPAAVPMETYIDDTVAVLSEVLEDTPADVLGGFDFTAQGVWAFARPGSPPLKLDQSLDDAGVVDGSLLTLVS
notes: EccD1 (Rv3877) of Mycobacterium tuberculosis H37Rv, cytoplasmic ubiquitin-like domain, residues 21-109, the same DNA fragment as in m1, placed after MBP; also called MBP fusion protein; not shown: His6, N-terminal, cleaved; MBP, N-terminal, kept
For the protein B2, the binding result in data set [2] is “binds”.
